Substitutions are numbered along the chain they refer to. In names and notes the source's numbering stands.
Legend:
[1] = target: T1, endogenous CD73 activity in Calu-6 cells (Homo sapiens, UniProt P21589); assay: Dual cell line HTRF cAMP assay (Calu-6 and HEK293/A2AR cells); type: cell-based; details: percentage of inhibition compared to 100 nM 11F11 set to 100%
T1 construct: Calu6 (CD73 endogenous expressors; human pulmonary adenocarcinoma cell line); endogenous in cells; host or cells: Calu6 (human pulmonary adenocarcinoma)
T1 sequence (P21589 27-549): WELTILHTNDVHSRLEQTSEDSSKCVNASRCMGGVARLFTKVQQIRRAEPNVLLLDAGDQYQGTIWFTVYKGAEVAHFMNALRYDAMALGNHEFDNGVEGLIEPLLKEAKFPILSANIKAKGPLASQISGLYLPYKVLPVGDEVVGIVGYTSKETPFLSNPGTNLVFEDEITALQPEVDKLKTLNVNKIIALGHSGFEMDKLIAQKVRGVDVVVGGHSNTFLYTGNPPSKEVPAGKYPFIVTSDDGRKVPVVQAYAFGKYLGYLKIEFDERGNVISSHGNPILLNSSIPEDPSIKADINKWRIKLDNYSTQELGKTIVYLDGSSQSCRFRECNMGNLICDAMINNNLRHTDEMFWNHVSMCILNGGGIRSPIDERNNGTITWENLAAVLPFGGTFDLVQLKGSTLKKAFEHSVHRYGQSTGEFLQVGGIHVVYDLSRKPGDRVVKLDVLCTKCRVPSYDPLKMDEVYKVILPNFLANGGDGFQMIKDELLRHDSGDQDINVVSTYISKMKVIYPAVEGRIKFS
Procedure: CD73 antibodies were serial diluted with PBS buffer containing 0.2% BSA, and plated 5 μl/well in 384 well white bottom proxiplate (PerkinElmer, Waltham, Mass.). Calu-6 cells were harvested and resuspend in PBS containing 0.2% BSA, then 5 μl of cells (300 cells/well) were added to the plate. The cells were incubated with antibodies for 10 minutes at 37° C. […] The cells were further incubated with AMP for 30 minutes at 37° C. During this time, HEK293/A2AR cells were harvested and diluted to 0.4 million/ml in PBS containing 0.2% BSA. They were added into the assay plate at 5 μl/well and continued to incubate at 37° C. for 1 hr. HRTF assays were performed using the homogenous time-resolved fluorescence (HTRF) HiRange cAMP detection kit (Cisbio, Bedford, Mass.) by adding 10 μl/well cAMP-conjugated d2 and 10μl/well europium cryptate conjugated anti-cAMP antibody in lysis buffer according to the manufacturer's instructions. Plates were incubated at room temperature for 60 minutes and Fluorescence Resonance Energy Transfer (FRET) signals (665 and 615 nM) were read using an EnVision plate reader (PerkinElmer, Waltham, Mass.). The FRET signal was calculated as the ratio of signal from the 665 nm (acceptor) and 615 nm (donor) channels and multiplied by 10,000. IC50 and Ymax were measured. […] All calculations were determined as a percentage of inhibition compared to this control, which was set to 100%.

human FcγRs = assay: SPR binding to human FcγRs (anti-his Fab captured FcgR-his proteins); details: 1.0 μM antibody
Procedure: Binding of the constructs to human FcγRs was measured via SPR. hCD64 and hCD32a-H131 binding data for IgG1.1 and IgG2 molecules were consistent with expected values for the different Fcs. IgG1.1f is the most inert Fc.
The binding of antibodies to Fc gamma receptors (FcγRs or FcgRs) was studied using biosensor technologies including Biacore surface plasmon resonance (SPR) and Fortebio Biolayer Interferometry (BLI). SPR studies were performed on a Biacore T100 instrument (GE Healthcare) at 25° C. The Fab fragment from a murine anti-6×His antibody was immobilized on a CM5 sensor chip using EDC/NHS to a density of ˜3000 RU. Various his-tagged FcgRs (7 ug/ml) were captured via the C-terminal his-tag using a contact time of 30 s at 10 ul/min, and the binding of 1.0 μM antibody was evaluated in a running buffer of 10 mM NaPO4, 130 mM NaCl, 0.05% p20 (PBS-T) pH 7.1. FcgRs used for these experiments included CD64 (FcgRI), CD32a-H131 (FcgRIIa-H131), CD32a-R131 (FcgRIIa-R131), CD32b (FcgRIIb), CD16a-V158 (FcgRIIIa-V158), CD16b-NA1 (FcgRIIIb-NA1), and CD16B-NA2 (FcgRIIIb-NA2). BLI experiments were performed on a Fortebio Octet RED instrument (Pall, Fortebio) at 25° C. in 10 mM NaPO4, 130 mM NaCl, 0.05% p20 (PBS-T) pH 7.1. […]

[2] = Differential scanning calorimetry, thermal stability of CD73 mAbs; type: physicochemical; details: PBS pH 7.1
Procedure: The thermal stability of CD73 mAbs were determined using a MicroCal Capillary DSC instrument (GE Healthcare). Antibodies were analyzed at a concentrations of 0.5-0.75 mg/ml in PBS pH 7.1. To stabilize the DSC instrument baseline and obtain a consistent thermal history, multiple scans of buffer alone in both the sample and reference cell were recorded prior to sample analysis. Sample scans contained mAb in the sample cell and PBS pH 7.1 in the reference cell. All scans were run from 10-110° C. at a scan rate of 60°/hr using a 5 minute pre-cycle thermostat period and no post-cycle thermostat period. Data (as shown in Table 15 below) were analyzed using MicroCal Origin Cap DSC analysis software. The appropriate buffer-buffer blank scans were subtracted from the sample-buffer data, and the transition midpoint temperature (Tm) values were determined by fitting the data to a non-2-state model. Tm1, Tm2 and Tm3 are the Tms for different domains in the antibodies.

CD73 on NCI-H292 cells = target: T2, CD73 on NCI-H292 cells (Homo sapiens, UniProt P21589); assay: Flow cytometry based cross-blocking on NCI-H292 cells; type: binding; details: FITC-labeled 11F11, 10 ug/mL
T2 construct: maintenance of downregulation of endogenous CD73; endogenous in cells; host or cells: NCI-H292
T2 sequence (P21589 27-549): T1 sequence (P21589 27-549)
Procedure: The antibodies were also subjected to flow cytometry based cross-blocking. The experiment was conducted as follows using one set of labeled fluorescently labeled antibody and a second set of unlabeled antibody: 100000 NCI-H292 cells were seeded per well. The plate was spun down and the cells were resuspended in 100 uL 2% FBS in PBS per well. The cells were blocked on ice for 20 min. Unlabeled antibody, as indicated, in 2% FBS in PBS was added to each well. […] 6 wells of cells were incubated without antibody, and were resuspended in 100 uL 2% FBS in PBS only (for controls). The cells were then incubated on ice for 30 min. The cells were washed twice with 2% FBS in PBS and the samples were resuspended in 140 uL 2% FBS in PBS, and analyzed on a FacsCalibur flow cytometer (Becton Dickinson).

[3] = test system: hCD32a-H131, hCD32a-R131, hCD32b, hCD16a-V158, hCD64; assay: BLI (Fortebio Octet) binding of FcgR analytes to antibodies captured from supernatants; set-up: species or system human
Procedure: The binding of antibodies to Fc gamma receptors (FcγRs or FcgRs) was studied using biosensor technologies including Biacore surface plasmon resonance (SPR) and Fortebio Biolayer Interferometry (BLI). SPR studies were performed on a Biacore T100 instrument (GE Healthcare) at 25° C. The Fab fragment from a murine anti-6×His antibody was immobilized on a CM5 sensor chip using EDC/NHS to a density of ˜3000 RU. Various his-tagged FcgRs (7 ug/ml) were captured via the C-terminal his-tag using a contact time of 30 s at 10 ul/min, and the binding of 1.0 μM antibody was evaluated in a running buffer of 10 mM NaPO4, 130 mM NaCl, 0.05% p20 (PBS-T) pH 7.1. FcgRs used for these experiments included CD64 (FcgRI), CD32a-H131 (FcgRIIa-H131), CD32a-R131 (FcgRIIa-R131), CD32b (FcgRIIb), CD16a-V158 (FcgRIIIa-V158), CD16b-NA1 (FcgRIIIb-NA1), and CD16B-NA2 (FcgRIIIb-NA2). BLI experiments were performed on a Fortebio Octet RED instrument (Pall, Fortebio) at 25° C. in 10 mM NaPO4, 130 mM NaCl, 0.05% p20 (PBS-T) pH 7.1. Antibodies were captured out of undiluted expression supernatants on protein A coated sensors, followed by the binding of 1 μM hCD32a-H131, hCD32a-R131, hCD32b, hCD16a-V158, or 0.1 μM hCD64 analytes.
The next set of constructs was used to engineer effector function into the otherwise effector function negative IgG2 isotype. […]

For Nc1ncnc2c1ncn2[C@@H]1O[C@H](COP(=O)(O)CP(=O)(O)O)[C@@H](O)[C@H]1O [APCP], the Ymax [1] was 97%.

B1: IgG2.3G1-AY-V27: IgG2.3G1-AY with S267E (protein)
chain: ASTKGPSVFPLAPCSRSTSESTAALGCLVKDYFPEPVTVSWNSGALTSGVHTFPAVLQSSGLYSLSSVVTVPSSNFGTQTYTCNVDHKPSNTKVDKTVERKSCVECPPCPAPELLGGPSVFLFPPKPKDTLMISRTPEVTCVVVDVEHEDPEVKFNWYVDGVEVHNAKTKPREEQYNSTYRVVSVLTVLHQDWLNGKEYKCKVSNKALPAPIEKTISKAKGQPREPQVYTLPPSREEMTKNQVSLTCLVKGFYPSDIAVEWESNGQPENNYKTTPPVLDSDGSFFLYSKLTVDKSRWQQGNVFSCSVMHEALHNHYTQKSLSLSPGK
modifications: Synthetic: IgG2.3G1-AY-V27
notes: IgG2.3G1-AY with S267E
In the case of B1, the “FcgR binding properties (SPR)” value (human FcγRs) is reported as “comparable FcgR binding properties to IgG1f and IgG1f-S267E”.

B2: IgG2.5G1-AY-V27: IgG2-B-form variant (C131S) hybrid with IgG1f, V27 (protein)
constant: B1 chain with C14S, S102C
modifications: left off: another chain or arm of the molecule
With B2 the “FcgR binding properties (SPR)” value (human FcγRs) was “IgG1f or modified IgG1f like effector functions”.

B3: 7A11: human anti-CD73 mAb, IgG1za, VK1; VH SEQ ID NO: 88, VL SEQ ID NO: 92 (antibody, V domains shown)
VH: EVQLVESGGGLVQTGRSLRLSCAASGFTFDDYAMHWVRQAPGKGLEWVSDISWNSDIIGYADSVKGRFTISRDNAKNSLYLQMNSLRAEDTALYYCAKDIYGSGSSFFDYWGQGILVTVSS
VL: DIQMTQSPSSLSASVGDRVTITCRASQYISSWLAWYQQKPEKAPKSLIYAASSLQSGVPSRFSGSGSGTDFTLTISSLQPEDFATYYCQQYHSYPPTFGQGTRLEIK
modifications: Synthetic: 7A11 VH; Synthetic: 7A11 VK1
For B3, the “DSC Tm1 (oC)” value [2] was 64.8 oC, the “DSC Tm2 (oC)” value [2] was 70.2 oC and the “DSC Tm3 (oC)” value [2] was 82.8 oC. For the same molecule, the “DSC Tonset (oC)” value [2] was 56.0 oC and the “competition with 11F11” value (CD73 on NCI-H292 cells) was “competes with 11F11”.

B4: IgG2.3: antibody with IgG2 constant region with C219S (protein)
constant: ASTKGPSVFPLAPCSRSTSESTAALGCLVKDYFPEPVTVSWNSGALTSGVHTFPAVLQSSGLYSLSSVVTVPSSNFGTQTYTCNVDHKPSNTKVDKTVERKSCVECPPCPAPPVAGPSVFLFPPKPKDTLMISRTPEVTCVVVDVSHEDPEVQFNWYVDGVEVHNAKTKPREEQFNSTFRVVSVLTVVHQDWLNGKEYKCKVSNKGLPAPIEKTISKTKGQPREPQVYTLPPSREEMTKNQVSLTCLVKGFYPSDIAVEWESNGQPENNYKTTPPMLDSDGSFFLYSKLTVDKSRWQQGNVFSCSVMHEALHNHYTQKSLSLSPGK
modifications: left off: another chain or arm of the molecule
notes: antibody with IgG2 constant region with C219S
In the case of B4, the “FcgR binding properties (BLI, supernatants)” value [3] is reported as “appreciable binding to only CD32a-H131”.

Source: patent publication US9605080B2, “Antibodies against CD73” (BRISTOL-MYERS SQUIBB COMPANY, priority 2014, dated 2017)
